Laboratory results as given in publication PMC5059739, “A distinct holoenzyme organization for two-subunit pyruvate carboxylase” (Nature Communications, 2016).

How the values were obtained:
[1] = molecular target: T1, SaPC (single-chain pyruvate carboxylase) (Staphylococcus aureus, UniProt A0A0H3JRU9); assay: malate dehydrogenase-coupled PC activity with and without acetyl-CoA; assay type: biochemical; conditions: allosteric activator
T1 construct: gene pycA; single-chain homo-tetramer, ~570 kDa by AUC; expression not described here
T1 sequence (A0A0H3JRU9 1-1150): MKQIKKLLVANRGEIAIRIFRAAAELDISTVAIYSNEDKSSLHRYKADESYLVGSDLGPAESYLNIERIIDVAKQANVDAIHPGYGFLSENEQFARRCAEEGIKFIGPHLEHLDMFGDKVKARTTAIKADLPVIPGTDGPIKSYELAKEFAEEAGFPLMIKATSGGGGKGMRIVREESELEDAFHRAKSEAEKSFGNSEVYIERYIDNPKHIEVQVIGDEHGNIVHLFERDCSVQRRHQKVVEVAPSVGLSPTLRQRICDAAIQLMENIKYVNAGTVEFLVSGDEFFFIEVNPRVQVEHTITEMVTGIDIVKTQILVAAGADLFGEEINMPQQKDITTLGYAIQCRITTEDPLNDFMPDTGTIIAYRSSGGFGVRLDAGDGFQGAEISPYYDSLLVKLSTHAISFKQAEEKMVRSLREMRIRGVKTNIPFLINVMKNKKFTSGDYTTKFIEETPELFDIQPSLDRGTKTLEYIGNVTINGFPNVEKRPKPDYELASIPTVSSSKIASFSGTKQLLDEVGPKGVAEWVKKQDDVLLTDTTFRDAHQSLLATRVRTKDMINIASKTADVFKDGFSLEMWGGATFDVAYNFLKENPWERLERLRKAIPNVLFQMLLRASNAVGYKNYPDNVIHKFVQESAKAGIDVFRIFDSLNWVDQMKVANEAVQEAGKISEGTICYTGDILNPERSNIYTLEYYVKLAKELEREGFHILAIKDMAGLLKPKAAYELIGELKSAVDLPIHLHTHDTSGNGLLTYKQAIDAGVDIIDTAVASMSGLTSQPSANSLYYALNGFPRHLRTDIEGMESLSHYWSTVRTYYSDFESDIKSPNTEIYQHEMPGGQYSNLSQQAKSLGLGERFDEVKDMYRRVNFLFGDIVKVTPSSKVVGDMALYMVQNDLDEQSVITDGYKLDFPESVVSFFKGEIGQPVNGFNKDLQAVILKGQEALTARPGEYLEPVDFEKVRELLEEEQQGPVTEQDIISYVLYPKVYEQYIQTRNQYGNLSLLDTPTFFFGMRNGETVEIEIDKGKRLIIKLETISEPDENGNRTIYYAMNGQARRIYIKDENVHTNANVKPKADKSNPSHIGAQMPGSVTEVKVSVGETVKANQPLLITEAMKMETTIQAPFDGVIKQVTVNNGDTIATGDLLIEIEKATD

[2] = molecular target: Methylobacillus flagellatus pyruvate carboxylase (MfPC) α subunit, N-terminal hexa-histidine tag, co-expressed with the β subunit (Methylobacillus flagellatus); assay: SEC; gel filtration of two-subunit PCs purified from E. coli co-expression, with Coomassie-stained SDS-PAGE of the purified complexes and of known amounts of α and β subunits; also with an extra plasmid expressing only α
[3] = molecular target: MfPC β subunit K581A mutant, purified alone (Methylobacillus flagellatus)
[4] = molecular target: MfPC α subunit expressed and purified alone (pET28a, N-terminal hexa-histidine tag) (Methylobacillus flagellatus); assay: SEC; analytical gel filtration of separately purified MfPC α and β subunits, alone and mixed in 1:2, 1:1 or 2:1 molar ratios; peak fractions on SDS-PAGE
[5] = molecular target: MfPC α subunit with the B sub-domain of BC (residues 131–201) replaced by a Gly–Ser–Ser–Gly linker (Methylobacillus flagellatus); assay: crystal structure; mutant MfPC (B domain deletion in α; K419A, E421A, E422A in β), 3.0 Å, space group R32, one α2β4 oligomer in the asymmetric unit; sitting drop, 20 °C, 2.5 mM pyruvate, 19% PEG3350, 2% tacsimate pH 6.0, 3% ethanol
[6] = molecular target: MfPC β subunit with the surface entropy reduction mutations K419A, E421A and E422A, untagged (Methylobacillus flagellatus); assay: as above
[7] = molecular target: MfPC β subunit with the surface entropy reduction mutations K419A, E421A and E422A, untagged (Methylobacillus flagellatus); assay: crystal structure; 'wild-type' MfPC (K419A, E421A, E422A in β), 6.6 Å, space group P3(1)21, one α and two β in the asymmetric unit, α2β4 by a crystallographic two-fold axis; 2.5 mM ATP and 2.5 mM pyruvate, 1.3 M ammonium sulfate, 0.1 M sodium citrate pH 6.0
[8] = molecular target: Methylobacillus flagellatus pyruvate carboxylase (MfPC) α subunit, N-terminal hexa-histidine tag, co-expressed with the β subunit (Methylobacillus flagellatus); assay: as above
[9] = molecular target: Pseudomonas aeruginosa pyruvate carboxylase (PaPC) α subunit (Pseudomonas aeruginosa); assay: AUC; sedimentation velocity, 0.5 mg/ml, 20 °C, 42,000 r.p.m., 20 mM Tris pH 8.0, 150 mM NaCl, continuous c(s) distribution (SEDFIT)
[10] = molecular target: the molecule itself; assay: as above

In the case of `CC(=O)SCCNC(=O)CCNC(=O)[C@H](O)C(C)(C)COP(=O)(O)OP(=O)(O)OC[C@H]1O[C@@H](n2cnc3c(N)ncnc32)[C@H](O)[C@@H]1OP(=O)(O)O` [acetyl-CoA], the activation [1] is reported as “When acetyl-CoA is present, SaPC activity becomes comparable to those of the two-subunit PCs”.

For “Methylobacillus flagellatus pyruvate carboxylase (MfPC) β subunit, untagged, co-expressed with the α subunit (enzyme)”, the stoichiometry N [2] was 2 β per α.

Work on “MfPC β subunit A49T mutant, purified alone (enzyme)” yielded a pyruvate carboxylase activity of hybrid holoenzymes (A49T and K581A β subunits mixed in a 1:1 ratio, then α subunit added), against the wild-type holoenzyme (% of wild-type activity) [3] of 29.

In the case of “MfPC β subunit expressed and purified alone (pET28a, N-terminal hexa-histidine tag) (enzyme)”, the stoichiometry N [4] is reported as 2 β per α.

“MfPC β subunit with the surface entropy reduction mutations K419A, E421A and E422A, untagged (enzyme)” was tested, and the stoichiometry N [5] was 2 β per α, the stoichiometry N [6] was 2 and the stoichiometry N [7] was 2. The stoichiometry N [8] was 2 β per α.

“Pseudomonas aeruginosa pyruvate carboxylase (PaPC) β subunit (enzyme)” was tested, and the stoichiometry N [9] was 2 β per α.

B1: Staphylococcus aureus pyruvate carboxylase (SaPC), single-chain (enzyme, UniProt A0A0H3JRU9 1-1150, looked up)
chain: T1 sequence (A0A0H3JRU9 1-1150)
notes: single-chain pyruvate carboxylase, Staphylococcus aureus; Used as a control in the ultracentrifugation
In the case of B1, the “stoichiometry N” value [10] is reported as 4.
